In patent US20160075744, “DNA-BINDING PROTEIN USING PPR MOTIF, AND USE THEREOF” (KYUSHU UNIVERSITY, NATATIONAL UNIVERSITY CORPORATION, published 2016):

Assays:
[1] = target: T1, GUN1-VP64 (Arabidopsis thaliana, UniProt Q9SIC9 SEQ:234-620); test: cell_activity; HEK293T dual luciferase, 4x target, vs pminCMV-luc2
T1 chain: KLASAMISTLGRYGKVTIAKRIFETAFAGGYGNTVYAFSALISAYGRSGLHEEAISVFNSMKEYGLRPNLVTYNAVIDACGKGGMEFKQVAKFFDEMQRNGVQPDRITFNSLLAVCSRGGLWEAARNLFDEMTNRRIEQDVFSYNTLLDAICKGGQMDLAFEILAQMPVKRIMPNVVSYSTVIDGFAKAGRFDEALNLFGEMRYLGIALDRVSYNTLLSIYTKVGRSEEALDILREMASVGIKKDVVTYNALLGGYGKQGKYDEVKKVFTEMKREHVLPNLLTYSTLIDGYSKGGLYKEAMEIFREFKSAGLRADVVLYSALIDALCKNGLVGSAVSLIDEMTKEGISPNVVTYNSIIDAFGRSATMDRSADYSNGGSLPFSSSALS
Protocol: (§1) The PPR-VP64 expression vector prepared in the section 1, the firefly luciferase expression vector prepared in the section 2, and the pRL-CMV vector (expression vector for Renilla luciferase, Promega) as a reference were introduced by using Lipofectamine LTX (Life Technologies). The DMEM medium (25 μl) was added to each well of a 96-well plate, and a mixture containing the PPR-VP64 expression vector (400 ng), firefly luciferase expression vector (100 ng), and pRL-CMV vector (20 ng) was further added. Then, a mixture of the DMEM medium (25 μl) and Lipofectamine LTX (0.7 μl) was added to each well, the plate was left standing at room temperature for 30 minutes, then 6×10⁴ of the HEK293 T cells suspended in the DMEM medium containing 15% fetal bovine serum (100 μl) were added, and the cells were cultured at 37° C. in a CO₂ incubator for 24 hours.
(§2) The luciferase activity was compared for the cases of introducing pTac2-VP64 or GUN1-VP64 together with pminCMV-luc2 for a negative control, or the reporter vector having 4 or 8 target sequences (table mentioned below, FIG. 6). The comparison of the activity was performed on the basis of standardized scores obtained by dividing the measured values obtained with Fluc (firefly luciferase) with the measured value obtained with Rluc (Renilla luciferase) as the reference (Fluc/Rluc). […]

[2] = target: T2, pTac2-VP64 (Arabidopsis thaliana, UniProt Q9S7Q2 SEQ:106-632); test: as above
T2 chain: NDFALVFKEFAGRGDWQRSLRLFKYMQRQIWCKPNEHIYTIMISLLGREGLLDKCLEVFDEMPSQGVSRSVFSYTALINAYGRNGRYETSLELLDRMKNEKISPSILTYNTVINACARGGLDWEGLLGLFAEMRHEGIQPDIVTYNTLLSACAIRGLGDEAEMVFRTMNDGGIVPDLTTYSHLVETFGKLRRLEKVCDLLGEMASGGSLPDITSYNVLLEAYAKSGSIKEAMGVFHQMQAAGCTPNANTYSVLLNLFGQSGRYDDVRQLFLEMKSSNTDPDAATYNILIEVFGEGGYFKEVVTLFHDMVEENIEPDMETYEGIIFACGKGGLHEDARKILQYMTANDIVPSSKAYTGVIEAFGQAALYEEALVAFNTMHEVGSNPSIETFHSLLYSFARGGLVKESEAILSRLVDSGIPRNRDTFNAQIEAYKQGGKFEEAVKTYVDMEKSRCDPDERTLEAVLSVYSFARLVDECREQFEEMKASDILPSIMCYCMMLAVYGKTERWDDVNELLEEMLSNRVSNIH
Protocol: as §1, §2

[3] = target: T2, pTac2-VP64; test: cell_activity; HEK293T dual luciferase, 8x target, vs pminCMV-luc2
Protocol: as §1, §2

[4] = target: T1, GUN1-VP64; test: as above
Protocol: as §1, §2

B1: GUN1 target (4x in reporter) (dsDNA)
DNA 1: AATTTGTCGAT
DNA 2: ATCGACAAATT
activity [1]: 2.88 fold activation

B2: pTac2 target (4x in reporter) (dsDNA)
DNA 1: AACTTTCGTCACTCA
DNA 2: TGAGTGACGAAAGTT
activity [2]: 2.91 fold activation

B3: pTac2 target (8x in reporter) (dsDNA)
DNA 1: AACTTTCGTCACTCA
DNA 2: TGAGTGACGAAAGTT
activity [3]: 4.81 fold activation

B4: GUN1 target (8x in reporter) (dsDNA)
DNA 1: AATTTGTCGAT
DNA 2: ATCGACAAATT
activity [4]: 3.15 fold activation
